The target of the experiment is PspB-T25 fusion (Y. enterocolitica PspB with Cya-T25 fused to its C-terminus) (Y. enterocolitica). Kind of experiment: two-hybrid.

For the substance “PspA-T18 fusion (Y. enterocolitica PspA with Cya-T18 fused to its C-terminus) (from UniProt Q9F4H4 1-221) (natural protein)”, the beta-galactosidase activity came to 1470 Miller units.

(Values after paper PMC2966024.)
